# Like-named read-outs stand apart in the source and are kept apart here.
# T1: murine JAM-A on L929 (L) cells (murine (endogenous in L929 cells), UniProt O88792 27-300)
# T1 sequence (looked up): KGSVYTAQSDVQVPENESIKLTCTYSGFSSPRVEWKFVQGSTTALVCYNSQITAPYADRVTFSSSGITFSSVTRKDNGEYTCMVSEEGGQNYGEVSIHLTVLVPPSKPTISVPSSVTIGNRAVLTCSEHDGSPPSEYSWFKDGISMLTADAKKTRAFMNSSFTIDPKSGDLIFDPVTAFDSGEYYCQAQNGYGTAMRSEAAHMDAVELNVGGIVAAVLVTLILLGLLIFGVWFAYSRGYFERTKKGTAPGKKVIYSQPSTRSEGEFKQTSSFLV
# Experiments:
# [1] = target: T1, murine JAM-A on L929 (L) cells; experiment: single molecule force spectroscopy
# [2] = target: T1, murine JAM-A on L929 (L) cells; experiment: single molecule force spectroscopy; remark: listed apart in the source
Binder,koff [1] [s⁻¹],koff [2] [s⁻¹]
reovirus attachment protein σ1 head domain plus a short region of the tail (residues 293–455) (domain or fragment) SPNLRYPIADVSGGIGMSPNYRFRQSMWIGIVSYSGSGLNWRVQVNSDIFIVDDYIHICLPAFDGFSIADGGDLSLNFVTGLLPPLLTGDTEPAFHNDVVTYGAQTVAIGLSSGGAPQYMSKNLWVEQWQDGVLRLRVEGGGSITHSNSKWPAMTVSYPRSFT,0.067 ± 0.041,
chimeric murine JAM-A/Fc fusion protein (Fc fusion) KGSVYTAQSDVQVPENESIKLTCTYSGFSSPRVEWKFVQGSTTALVCYNSQITAPYADRVTFSSSGITFSSVTRKDNGEYTCMVSEEGGQNYGEVSIHLTVLVPPSKPTISVPSSVTIGNRAVLTCSEHDGSPPSEYSWFKDGISMLTADAKKTRAFMNSSFTIDPKSGDLIFDPVTAFDSGEYYCQAQNGYGTAMRSEAAHMDAVELNVGG,,0.688 ± 0.349
